Experiment [1] addresses human mature BMP9 (human) (UniProt Q9UK05). As to the kind of experiment: competition ELISA: antibody mixed with 5 nM BMP9-biotin, binding to coated ActRIIA (5 µg/ml) detected. A general note: In an ELISA, binding on a coated surface is turned into a signal by an enzyme label.
Experiment [2] shares this target. Put plainly: competition ELISA: antibody mixed with 0.6 nM BMP9-biotin, binding to coated BMPRII (1 µg/ml) detected.
Experiment [3] has the same target. Put plainly: competition ELISA: antibody mixed with 1.5 nM BMP9-biotin, binding to coated BMPRII (2 µg/ml) detected.
Experiment [4] has the same target. As to the kind of experiment: competition ELISA: antibody mixed with 15 nM BMP9-biotin, binding to coated ActRIIB (5 µg/ml) detected.
The target is the same in experiment [5]. Put plainly: competition ELISA: antibody mixed with 0.2 nM BMP9-biotin, binding to coated ALK1 (1 µg/ml) detected.
Experiment [6] has the same target. As to the kind of experiment: competition ELISA: antibody mixed with 0.5 nM BMP9-biotin, binding to coated ALK1 (1 µg/ml) detected.

Chain of human mature BMP9 (human) (Q9UK05 320-429): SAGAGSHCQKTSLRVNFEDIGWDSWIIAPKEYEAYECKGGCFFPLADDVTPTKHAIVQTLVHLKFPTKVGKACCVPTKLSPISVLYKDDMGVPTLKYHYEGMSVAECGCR

B1: BM01 (antibody, from another filing, V domains shown)
VH: QVQLVQSGAEVKKPGASVKVSCKASGYTFTRYWMHWVRQAPGQGLEWMGEINPSQGGTNYNEKFKSRVTMTVDKSISTAYMELSRLRSDDTAVYYCAIGSNYGGLVYWGQGTLVTVSS
VL: EIVLTQSPATLSLSPGERATLSCRASESLDNYGISFMNWFQQKPGQAPRFLIYAASNQGSGIPARFSGSGSGTDFTLTISSLQPEDTAVYFCQQSKEVPRTFGGGTKVEIKR
Take B1: the IC50 (read off the curve) in experiment [1] is 2 nM; in experiment [2], 0.1 nM; in experiment [3], 2 nM; in experiment [4], 8 nM.

B2: BM02 (antibody, from another filing, V domains shown)
VH: QVQLVQSGAEVKKPGASVKVSCKASGYTFRSYNMHWVRQAPGQGLEWMGLIYPGNAVTSYSQKFKDRVTMTVDKSTSTAYMELSSLRSEDTAVYYCAKDDYFRGGSYAMDYWGQGTTVTVSS
VL: EIVLTQSPDFQSVTPKEKVTITCRASQSIRNNLHWYQQKPDQSPKLLIKYASQSIRGVPSRFSGSGSGTDFTLTINSLEAEDAATYYCQQSHSWPYTFGGGTKVEIKR
For the molecule B2, the values for the IC50 (read off the curve) in experiment [5] and in experiment [6] were 0.06 nM and 0.1 nM, respectively.

These data come from US20240083991A1.
